Laboratory results published in patent publication US20240002477A1 (UNIVERSITY OF CHICAGO, published 2024).
Changes are numbered by the printed parent chain.

B1: S144-843 (antibody, V domains shown)
VH: QVQLVESGGGVVQPGGSVRLSCAASGFDFTNNGMYWVRQAPGKGLEWVAFIRYDGNKQDYADSVKGRFTISRDNSKNTLYLQMSSLRPEDTAVYYCAKGVYTENYGWGQGTLVTVSS
VL: EIVLTQSPGTLSLSPGERATLSCRASQTVTSRYLAWYQQKPGQAPRLLIYGASTRATGIPDRFSGSGSGTDFTLTISRLEPEDFAVYYCQQYGNSPPYTFGQGTKLEIK
notes: recombinant human IgG1
B2: S24-636 (antibody, V domains shown)
VH: EVQLVESGGGLVQPGGSLRLSCAASGFTLSSYWMSWVRQAPGKGLEWVANIKQDGSEKYYVDSVKGRFTISRDNAKNSLYLQMNSLRAEDTAVYYCARDLTATWFDPWGQGTLVTVSS
VL: QTVVTQEPSFSVSPGGTVTLTCGLSSGSVSTSYYPSWYQQTPGQAPRTLIYSTNKRSSGVPDRFSGSILGNKAALTITGAQADDESDYYCVLYMGSGMSVFGGGTKLTVL
B3: S24-1378 (antibody, V domains shown)
VH: EVQLVESGGGLVQPGGSLRLSCAASGFTVSSNYMSWVRQAPGKGLEWVSVIYSGGSTYYADSVKGRFTISRHNSKNTLYLQMNSLRAEDTAVYYCAREGYCTNGVCYRHAFDIWGQGTMVTVSS
VL: B2 VL with K55T, M98I
notes: recombinant human IgG1
B4: S144-175 (antibody, V domains shown)
VH: QVQLVQSGAEVKKPGASVKVSCKASGYTFTGYYMHWVRQAPGQGLEWMGRINPNSGGTNFAQRFQGRVSMTRDTSISTAYMELSSLRSDDTAVYYCARGAKFEHLPFDIWGQGTMVTVSS
VL: QSMLTQPPSASGTPGQRVTISCSGSSSNIGSNYVYWYQQLPGTAPKLLIYRNNQRPSGVPDRFSGSKSGTSASLAISGLRSEDEADYYCAAWDDRRWVFGGGTKLTVL
notes: recombinant human IgG1
B5: S144-208 (antibody, V domains shown)
VH: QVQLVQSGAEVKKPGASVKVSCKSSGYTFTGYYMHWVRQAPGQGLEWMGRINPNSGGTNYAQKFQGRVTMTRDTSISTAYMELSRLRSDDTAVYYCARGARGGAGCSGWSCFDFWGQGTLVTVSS
VL: QSALTQPRSVSGSPGQSVTISCTGTSSDVGGYKYVSWYQQHPGKAPKLMIYDVSKRPSGVPDRFSGSKSGNTASLTISGLQAEDEGDYYCCSYAGTYSLVFGGGTKVTV
notes: recombinant human IgG1
B6: S24-1345 (antibody, V domains shown)
VH: QLQLQESGPGLVKPSETLSLTCTVSGGSISSSSYYWGWIRQPPGKGLEWIGSIYYSGSTYYNPSLKSRVTISVDTSKNQFSLKLSSVTAADTAVYYCARRIRRPTSEVVITYVFDYWGQGTLVTVSS
VL: AIQLTQSPSSLSASVGDRVTITCRASQGISSALAWYQQKPGKAPKLLIYDASSLESGVPSRFSGSGSGTDFTLTISSLQPEDFATYYCQQFNSYLTFGGGTKVEIK
B7: S144-741 (antibody, V domains shown)
VH: QVHLVQSGAEVKKPGASVKVSCKASGYTFTGYYMNWVRQAPGQGLEWMGRINPNSGGTNYAQKFQGRVTMTRDTSISTAYMELSRLRSDDAAVYYCARAERYSSSWYNLYYWGQGTLVTVSS
VL: not shown
notes: recombinant human IgG1
B8: S564-287 (antibody, V domains shown)
VH: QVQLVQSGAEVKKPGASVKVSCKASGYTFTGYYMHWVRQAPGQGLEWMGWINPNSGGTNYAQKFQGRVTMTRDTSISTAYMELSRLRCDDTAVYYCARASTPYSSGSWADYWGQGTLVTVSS
VL: QSALTQPASVSGSPGQSITISCTGTSSDVGGYNYVSWYQQHPGKAPKLMIYDVSNRPSGVSNRFSGSKSGNTASLTISGLQAEDEADYYCSSYASSSTWVFGGGTKLTVL
notes: recombinant human IgG1
B9: S24-278 (antibody, V domains shown)
VH: QVQLVQSGAEVKKPGASVKVSCKASGYTFTGYYMHWVRQAPGQGLEWMGWINPNSGDTNYAQKFQGWVTMTRDTSLSTAYMELSRLKSDDTAVYYCARVGVGEYSGRHYYYYGMDVWGQGTTVTVSS
VL: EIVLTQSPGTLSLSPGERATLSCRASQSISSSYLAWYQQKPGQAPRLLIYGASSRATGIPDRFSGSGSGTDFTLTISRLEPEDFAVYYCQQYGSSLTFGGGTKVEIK
notes: recombinant human IgG1
B10: S144-1299 (antibody, V domains shown)
VH: QVQLQESGPGLVKPSETLSLTCTVSGGSISSYYWSWIRQPPGKGLEWIGYINYRGITNYNPSLKSRVTISVDMSKNQFSLKLSSVTAADTAVYSCARLAVASRGTVDYWGQGTLVTVSS
VL: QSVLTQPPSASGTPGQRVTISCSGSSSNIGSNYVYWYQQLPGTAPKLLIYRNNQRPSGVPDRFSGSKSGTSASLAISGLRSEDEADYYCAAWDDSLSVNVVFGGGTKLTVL
notes: recombinant human IgG1
B11: S144-588 (antibody, V domains shown)
VH: QLQLQESGPGLVKPSETLSLTCTVSGGSISSSSYYWGWIRQPPGKGLEWIGSIYYSGSTYYNPSLKSRFTISVDTSKNQFSLKLSSVTAADTAVYYCAAYQRKLGYCRGNSCFSCFDPWGQGTLVTVSS
VL: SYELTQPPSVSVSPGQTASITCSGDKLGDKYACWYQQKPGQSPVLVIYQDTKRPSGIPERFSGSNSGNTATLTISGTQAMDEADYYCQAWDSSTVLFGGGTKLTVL
notes: recombinant human IgG1
B12: S564-14 (antibody, V domains shown)
VH: EVQLVESGGGLVQPGGSLRLSCAASGLTFSSYWMSWARQAPGKGLEWVANIKKDGSEKYYVDSVKGRFTISRDNAKNSLYLQMNSLRVEDTAVYYCASEPPHYGGNSGAEYFQHWGQGTLVTVSS
VL: SYVLTQPPSVSVAPGKTARITCGGNNIGSKSVHWYQQRPGQAPVLVIYYDSDRPSGIPERFSGSNSGNTATLTISRVEAGDEADYYCQVWDSSSDHHYVFGTGTKVTVL
notes: recombinant human IgG1
B13: S24-1224 (antibody, V domains shown)
VH: QVQLVQSGAEVKKPGASVRVSCKASGYTFTSYYIYWVRQAPGQGLEWMGVINPSGGSTSYAQKFQGRVTLTRDTSTSTVYMDLSSLRSEDTAVYYCARDPIMWEVVTRGRGNWFDPWGQGTLVTVSS
VL: QSVLTQPPSVSGAPGQRVTIPCTGSSFNIGAGYDVHWYQQLPGTAPKLLIFGNSNRPSGVPDRFSGSRSGTSASLAITGLQAEDEADYYCQSYDSSLSGVVFGGGTTLTVL
notes: recombinant human IgG1
B14: S144-69 (antibody, V domains shown)
VH: EVQLVQSGAEVKKPGESLKISCKGSGYSFTSYWIGWVRQMPGKGLEWMGIIYPGDSDTRYSPSFQGQVTISADKSITTAYLQWSSLKASDTAMYYCARTQTTNWFDSWGQGTLVTVSS
VL: DIQMTQSPSTLSVSVGDRVTITCRASQSVSSWLAWYQQKPGKAPKLLIYDASSLESGVPSRFSGSGSGTEFTLTISSLQPDDFATYYCQQYNSFYTFGQGTKLEIK
notes: recombinant human IgG1
B15: S20-74 (antibody, V domains shown)
VH: QVQLQESGPGLVKPSETLSLTCTVSGGSISSHYWSWIRQPPGKGLEQIGYMYYSGSTNYNPSLKSRVIISVDTSKNQFSLKLSSVTAADTAVYYCAGRDQLLYGADGFDIWGQGTMVTVSS
VL: QSALTQPPSASGSPGQSVTISCTGTSSDVGGYNYVSWYQQHPGKAPKLMIYEVSKRPSGVPDRYSGSKSGNTASLTVSGLQAEDEADYYCSSYAGSSNHVIFGGGTKLTVL
notes: recombinant human IgG1
B16: S144-466 (antibody, V domains shown)
VH: EVQLVQSGAEVKKPGESLKISCKGSGYRFTRYWIGWVRQMPGKGLEWMGIIYLGDSETRYSPSFQGQVTISADNSISTAYLQWSSLKASDTAMYYCARSSNWNYGDYWGQGTLVTVSS
VL: DIQMTQSPSTLSASVGDRVTITCRASQSITSWLAWYQQKSGKAPKLLIYDASSLESGVPSRFSGSGSGTEFTLTISSLQPDDFATYYCQQYNSYPWTFGQGTKVEIK
notes: recombinant human IgG1
B17: S144-509 (antibody, V domains shown)
VH: EVQLVQSGAEVKKPGESLKISCKGSAYTFTTYWIGWVRQMPGKGLEWMGIIYPGDSDTRYSPSFQGQVTISADKSISTAYLQWSSLKASDTAMYYCARLLLVAGPFDYWGQGTLVTVSS
VL: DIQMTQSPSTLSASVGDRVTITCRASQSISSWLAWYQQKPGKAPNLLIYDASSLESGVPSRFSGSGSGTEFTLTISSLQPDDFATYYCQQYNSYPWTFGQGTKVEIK
notes: recombinant human IgG1
B18: S564-152 (antibody, V domains shown)
VH: QVQLVESGGGVVQPGRSLRLSCAASGFTFSYYGMHWVRQAPGKGLEWVAVIWYDGSNKHYADSVKGRFTISRDNSKNTLYLQMNSLRAEDTAVYYCAKNAAPYCSGGSCYGTYFDYWGQGTLVTVSS
VL: DIQMTQSPSSLSASVGDRVTITCQASQDINNYLNWYQQKPGKAPKLLIYDASNLETGVPSRFSGSGSGTDFTFTISSLQPEDIATYYCQQYDNVPPHTFGQGTKLEIK
notes: recombinant human IgG1
B19: S564-138 (antibody, V domains shown)
VH: QVLLVQSGAEVKKPGASVKVSCKASGYTFTGYYLHWVRQAPGQGLEWMGWINPISGGTNYAQNFQDRVTMTRDTSIITAYMELSRLRSDDTAVYYCARLAYYYDSSAYRGAFDIWGQGTMVTVSS
VL: B8 VL with D52E, N62D, A94T, W99Y, G103T, L107V
notes: recombinant human IgG1
B20: S144-67 (antibody, V domains shown)
VH: EVQLVQSGAEVKKPGESLKISCKGSGYSFTTYWIAWVRQMPGKGLEWVGIIYPDDSDTRYSPSFQGQVTISADKSIGTAYLQWSSLKASDTAMYYCARGQYYDFWSGAGGVDVWGQGTTVTVSS
VL: QSVLTQPPSVSGAPGQRVTISCTGSRSNIGAGYDVQWYQQVPGTAPKLLISGNSNRPSGVPDRFSGSKSGTSASLAITGLQAEDEADYYCQSYDSSLSGLRVFGGGTKLTVL
notes: recombinant human IgG1
B21: S24-1384 (antibody, V domains shown)
VH: EVQLVESGGGLVQPGGSLRLSCAVSGFTFSSYSMNWVRQAPGKGLEWVSYISSSSSIIYYADSVKGRFTISRDNAKNSLYLQMNSLRAEDTAVYYCARDFLDYSRSYSYGMDVWGQGTTVTVSS
VL: SYVLTQPPSVSVAPGQTARITCGGDNIGSKNVHWYQQKPGQAPVLVVFDDSDRPSGIPERFSGSNSGNTATLTISRVEAGDEADYYCQVWDSSSDHYVVFGGGTKLTVL
B22: S144-1406 (antibody, V domains shown)
VH: QVQLVQSGAEVKKPGASVKVSCKASGYTFTTYAMHWVRQAPGQRLEWMGWINAGNGNTKYSQNFQGRVTITRDTSASTAYMELSSLRSEDTAVYYCASLVGGDSSSWYDYMDVWGKGTTVTVSS
VL: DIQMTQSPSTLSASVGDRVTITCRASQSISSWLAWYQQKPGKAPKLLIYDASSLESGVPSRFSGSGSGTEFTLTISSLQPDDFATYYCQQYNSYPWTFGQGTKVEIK
notes: recombinant human IgG1
B23: S144-1079 (antibody, V domains shown)
VH: QVQLVQSGAEVKKPGSSVKVSCKASGDTFGSYSITWVRQAPGQGLEWMGRIIPVLGIANYAQKFQGRVTITADKSTSTAYMELSSLRSEDTAVYYCAGGGCSGGNCYSWYNWFDPWGQGSLVTVSS
VL: EIVLTQSPGTLSLSPGERATLSCRASQSVSSNYLAWYQQKPGQAPRLLIYGASSRATGIPERFSGSGSGTDFTLTISRLEPEDFAVYYCQQYGRSPYTFGQGTKLEIK
notes: recombinant human IgG1

These binders were tested against T1, SARS-CoV-2 ORF8 protein (SARS-CoV-2, UniProt P0DTC8 16-121) (assay: mAb table, Specificity column (recombinant IgG1; ELISA)).
T1 construct: domain: Ig-like domains; also called open reading frame 8
T1 sequence (P0DTC8 16-121, tags left off): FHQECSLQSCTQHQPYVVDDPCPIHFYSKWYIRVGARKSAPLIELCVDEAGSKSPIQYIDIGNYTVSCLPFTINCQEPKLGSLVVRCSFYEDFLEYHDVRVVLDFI
B1: binds.
B2: binds.
B3: binds.
B4: binds.
B5: binds.
B6: binds.
B7: binds.
B8: binds.
B9: binds.
B10: binds.
B11: binds.

What follows are binders tested against SARS-CoV-2 spike receptor-binding domain (SARS-CoV-2, UniProt P0DTC2 319-541) in the same assay as above.
B12: binds.
B13: binds.
B14: binds.
B15: binds.
B16: binds.
B17: binds.
B18: binds.
B19: binds.
B20: binds.
B21: binds.
B22: binds.
B23: binds.
